Measured values published in IntAct's records for PubMed 17986610.

Experiments:
trcb_xenla fbxw1 = trcb_xenla fbxw1 (UniProt Q91854)
plk1_xenla plk1 = plk1_xenla plk1 (UniProt P70032)
Sequence of plk1_xenla plk1 (P70032 whole entry): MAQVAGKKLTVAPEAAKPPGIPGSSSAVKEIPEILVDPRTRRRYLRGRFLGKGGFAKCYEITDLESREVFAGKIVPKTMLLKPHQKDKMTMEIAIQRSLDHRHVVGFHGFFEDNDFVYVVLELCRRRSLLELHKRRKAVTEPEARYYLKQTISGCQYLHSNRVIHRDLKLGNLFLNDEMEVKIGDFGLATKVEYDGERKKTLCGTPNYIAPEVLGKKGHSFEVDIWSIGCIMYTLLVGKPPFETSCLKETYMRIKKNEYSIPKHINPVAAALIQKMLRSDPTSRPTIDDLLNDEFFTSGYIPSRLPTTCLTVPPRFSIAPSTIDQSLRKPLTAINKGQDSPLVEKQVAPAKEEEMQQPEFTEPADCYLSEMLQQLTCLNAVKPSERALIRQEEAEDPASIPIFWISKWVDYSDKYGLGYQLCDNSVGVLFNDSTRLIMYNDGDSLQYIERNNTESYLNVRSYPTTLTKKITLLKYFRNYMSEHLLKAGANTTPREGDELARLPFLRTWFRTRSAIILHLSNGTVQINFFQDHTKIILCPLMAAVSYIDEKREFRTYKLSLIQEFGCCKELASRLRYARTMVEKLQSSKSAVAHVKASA

Sequence of trcb_xenla fbxw1 (Q91854 whole entry): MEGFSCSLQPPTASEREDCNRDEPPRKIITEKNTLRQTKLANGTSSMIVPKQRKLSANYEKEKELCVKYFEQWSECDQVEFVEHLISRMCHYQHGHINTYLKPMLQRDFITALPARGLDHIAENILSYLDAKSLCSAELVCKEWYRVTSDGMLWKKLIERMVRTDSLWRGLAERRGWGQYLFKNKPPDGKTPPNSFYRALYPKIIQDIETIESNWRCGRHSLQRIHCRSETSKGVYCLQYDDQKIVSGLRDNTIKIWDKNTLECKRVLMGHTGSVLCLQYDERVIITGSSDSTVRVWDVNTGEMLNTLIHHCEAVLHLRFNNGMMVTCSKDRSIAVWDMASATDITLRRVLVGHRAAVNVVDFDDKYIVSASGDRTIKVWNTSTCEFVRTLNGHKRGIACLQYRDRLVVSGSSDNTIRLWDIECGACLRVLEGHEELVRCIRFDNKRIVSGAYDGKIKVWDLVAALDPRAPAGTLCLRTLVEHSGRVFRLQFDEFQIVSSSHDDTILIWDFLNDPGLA
Sequence of Cytoplasmic polyadenylation element-binding protein 1-A (Xenopus laevis (African clawed frog)), Q91572 T125A (Q91572 whole entry T125A): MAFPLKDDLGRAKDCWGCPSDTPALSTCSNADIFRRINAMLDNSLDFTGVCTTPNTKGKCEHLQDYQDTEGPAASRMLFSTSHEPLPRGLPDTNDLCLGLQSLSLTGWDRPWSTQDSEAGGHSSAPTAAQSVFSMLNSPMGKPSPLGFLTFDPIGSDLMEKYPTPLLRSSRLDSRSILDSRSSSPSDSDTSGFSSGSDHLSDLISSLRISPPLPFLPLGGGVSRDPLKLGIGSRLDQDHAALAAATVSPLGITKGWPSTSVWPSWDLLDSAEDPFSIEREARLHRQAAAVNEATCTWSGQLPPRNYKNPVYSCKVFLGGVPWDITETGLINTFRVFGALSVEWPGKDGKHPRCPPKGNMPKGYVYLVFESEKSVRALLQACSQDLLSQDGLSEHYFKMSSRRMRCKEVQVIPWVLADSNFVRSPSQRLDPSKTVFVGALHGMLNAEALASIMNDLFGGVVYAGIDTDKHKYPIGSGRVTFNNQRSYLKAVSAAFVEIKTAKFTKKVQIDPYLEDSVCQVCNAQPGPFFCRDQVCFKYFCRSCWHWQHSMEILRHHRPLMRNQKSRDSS
Sequence of Cytoplasmic polyadenylation element-binding protein 1-A (Xenopus laevis (African clawed frog)), Q91572 G192A (Q91572 whole entry G192A): as the sequence (Q91572 whole entry T125A) above, with A125T, G192A counted along it

Substance | effect of a mutation on the interaction (trcb_xenla fbxw1) | effect of a mutation on the interaction (plk1_xenla plk1)
Cytoplasmic polyadenylation element-binding protein 1-A (Xenopus laevis (African clawed frog)), Q91572 G192A | decreasing interaction | –
Cytoplasmic polyadenylation element-binding protein 1-A (Xenopus laevis (African clawed frog)), Q91572 T125A | – | decreasing interaction
